Legend:
parent cell lines = test: Daunorubicin uptake into cells (accumulation and efflux phase, flow cytometry), parent cell lines; format: cell-based; conditions: FIG. 8
Method: (§1) To elucidate the mechanism of overcoming drug (chemotherapeutic agent)-resistance using C3B3-DB, MDR1 expression on the cell surface was examined after treating these cells for six hours with C3B3-DB (0.1 μg/mL). […] Furthermore, treatment of these cells with C3B3-DB was followed by culturing these cells in the presence of daunorubicin (0.1 μg/mL, Meiji Seika, Tokyo) and the amount of daunorubicin uptake into cells were compared.
(§2) Specifically, uptake of the pharmaceutical agent into the cells (accumulation phase) was evaluated by culturing the cells for two hours in the presence or absence of C3B3-DB, then adding daunorubicin and culturing the cells for 30 minutes, washing the cells, and then measuring the PE intensity by flow cytometry. The cells were cultured for another 30 minutes to evaluate persistence of the pharmaceutical agent in the cells (efflux phase) in a same manner using flow cytometry.

[1] = system: vincristine-resistant cell lines; test: Daunorubicin uptake into cells (accumulation and efflux phase, flow cytometry), vincristine-resistant cell lines; format: cell-based; conditions: FIG. 8
Method: as §1, §2

BLTH = test: Cytotoxic activity, cell growth test using WST-8, BLTH; format: cell-based; conditions: FIG. 6
Method: (§3) Acute myeloid leukemia cell line HL60 (American Type Culture Collection, Manassas, Va., USA) and Burkitt's lymphoma cell line BLTH (kindly gifted from Prof Hirose at The University of Tokushima, Br. J. Cancer (1987) 56: 413-417) were cultured in the presence of vincristine to obtain vincristine-resistant cell lines HL60-R and BLTH-R.
(§4) First, these tumor cells were used to examine their susceptibility to C3B3-DB. These tumor cells were cultured in the presence of various concentrations of C3B3-DB and then antitumor activity (cytotoxic activity) of C3B3-DB was measured by cell growth tests using WST-8 (Kishida Chemicals, Osaka).
(§5) In addition, whether or not drug resistance in chemotherapeutic agent-resistant tumor cells can be overcome (improved) was examined by culturing these cells in the presence or absence of C3B3-DB (0.1 μg/mL) for six hours and then adding vincristine.

HL60 = test: Cytotoxic activity, cell growth test using WST-8, HL60; format: cell-based; conditions: FIG. 6
Method: as §3, §4, §5

human myeloma cells = conditions: various human myeloma cell lines; cited from earlier work
HL60-R = test: Cytotoxic activity, cell growth test using WST-8, HL60-R; format: cell-based
Method: as §3, §4, §5

[2] = used alone, compared with 2D7 diabody used alone, Patent Document 5; cited from earlier work
MDR1 = MDR1 expression on the cell surface after C3B3-DB treatment (flow cytometry); format: cell-based; conditions: six hours with C3B3-DB 0.1 μg/mL, chemotherapeutic agent-resistant cell lines, FIG. 7
Excerpt: MDR1 expression on the cell surface was examined by flow cytometry using anti-MDR1 antibody (UIC-2, Chemicon, Temecula, Calif., USA) and FITC-labeled goat anti-mouse IgG antibody (Biosource, Camarillo, Calif., USA). Mouse IgG (BD Biosciences, San Jose, Calif., USA) was used for the control antibody.
as §1

[3] = system: multiple myeloma model mice generated by transplanting human myeloma cell line; conditions: cited from earlier work
activated lymphocytes = conditions: cited from earlier work
BLTH-R = test: Cytotoxic activity, cell growth test using WST-8, BLTH-R; format: cell-based
Method: as §3, §4, §5

[4] = C3B3-DB two hours then daunorubicin

## COc1cccc2c1C(=O)c1c(O)c3c(c(O)c1C2=O)C[C@@](O)(C(C)=O)C[C@@H]3O[C@H]1C[C@H](N)[C@H](O)[C@H](C)O1 [daunorubicin, reference compound]
Parent cell lines; daunorubicin 0.1 μg/mL, accumulation and efflux phase
  amount of daunorubicin uptake into cells: a certain amount of daunorubicin was taken up
[1]; daunorubicin 0.1 μg/mL, both phases
  amount of daunorubicin uptake into cells: significantly decreased

## CC[C@]1(O)C[C@H]2CN(CCc3c([nH]c4ccccc34)[C@@](C(=O)OC)(c3cc4c(cc3OC)N(C=O)[C@H]3[C@@](O)(C(=O)OC)[C@H](OC(C)=O)[C@]5(CC)C=CCN6CC[C@]43[C@@H]65)C2)C1 [vincristine, reference compound]
BLTH; with or without C3B3-DB pre-treatment
  cell injury by vincristine: concentration-dependent cell injury
HL60; HL60, with or without C3B3-DB pre-treatment
  cell injury by vincristine: concentration-dependent cell injury

B1: C3B3-DB: C3B3 diabody, a low-molecular-weight antibody of the C3B3 antibody recognizing HLA class I (protein)
scFv: EVKLVESEGGLVQPGSSMKLSCTASGFTFSDHYMAWVRQVPEKGLEWVADINYDGSRTYYLDSLKSRFIISRDNGKNILYLQMSSLKSEDTATYYCARDRVRSSYYSNLFAMDYWGQGISVTVSSGGGGSDIQMTQTTSSLSASLGDRVTISCRASQDIANYLNWYQQKPDGTVKLLIYYTSRLHSGVPSRFSGSGSGTDYSLTISNLEPEDIATYYCQQYSKLPYTFGSGTKLEIK
modifications: left off: small tags and cut ends
BLTH; C3B3-DB 0.1 μg/mL for six hours then vincristine
  cytotoxic activity enhancement of vincristine due to pre-treatment: not observed
HL60; HL60, C3B3-DB 0.1 μg/mL for six hours then vincristine
  cytotoxic activity enhancement of vincristine due to pre-treatment: not observed
Human myeloma cells
  cell death-inducing activity: strong cell death-inducing activity
Parent cell lines; [4]
  pre-treatment effect on amount of daunorubicin uptake: not observed
HL60-R; C3B3-DB alone, 24 hours, HL60-R compared with parent HL60, FIG. 5
  cytotoxic activity (survival rate of the cells): cell injury was induced at lower concentrations
HL60-R; HL60-R, C3B3-DB 0.1 μg/mL for six hours then vincristine, FIG. 6
  cytotoxic activity enhancement of vincristine due to pre-treatment: enhanced
[2]
  antitumor effects: stronger antitumor effects than 2D7 diabody
MDR1
  MDR1 expression on the cell surface: decrease in some cells
[1]; [4]
  pre-treatment effect on amount of daunorubicin uptake: increased the amount of uptake
[3]
  survival benefit: significant survival benefit
Activated lymphocytes
  cell death-inducing activity: strong cell death-inducing activity
BLTH-R; BLTH-R, C3B3-DB 0.1 μg/mL for six hours then vincristine, FIG. 6
  cytotoxic activity enhancement of vincristine due to pre-treatment: enhanced
BLTH-R; C3B3-DB alone, 24 hours, BLTH-R compared with parent BLTH, FIG. 5
  cytotoxic activity (survival rate of the cells): cell injury was induced at lower concentrations
